In US20250179143A1 (CHILDREN S HOSPITAL OF PHILADELPHIA, published 2025):

What was measured:
[1] = target: HLA-A*01:01/hb2m/STAPGJLEY (peptide-loaded) (human); experiment: cell-based or functional assay
[2] = target: HLA-A*02:01/hb2m/KILGFVF(bF)V (human); experiment: cell-based or functional assay
[3] = target: HLA-A*02:06/hb2m/KILGFVF(bF)V (human); experiment: cell-based or functional assay
[4] = target: HLA-A*02:01/hb2m/KILGFVFJV (peptide-loaded) (human); experiment: SPR, peptide-loaded HLA-A*02:01

Binder | kapp of fluorescent peptide binding at 5 uM chaperone (FP) [1] [s⁻¹] | k2overall, fold against hTAPBPR [2] [fold] | k2overall, fold against hTAPBPR [3] [fold] | fold lower KD than hTAPBPR [4] [fold]
hTAPBPR^RQ (K211R, R270Q) (other, domain: luminal domain; As m1) KPHPAEGQWRAVDVVLDCFLAKDGAHRGALASSEDRARASLVLKQVPVLDDGSLEDFTDFQGGTLAQDDPPIIFEASVDLVQIPQAEALLHADCSGKEVTCEISRYFLQMTETTVKTAAWFMANMQVSGGGPSISLVMKTPRVTKNEALWHPTLNLPLSPQGTVRTAVEFQVMTQTQSLSFLLGSSASLDCGFSMAPGLDLISVEWRLQHRGRGQLVYSWTAGQGQAVRKGATLEPAQLGMARDASLTLPGLTIQDEGTYICQITTSLYQAQQIIQLNIQASPKVRLSLANEALLPTLICDIAGYYPLDVVVTWTREELGGSPAQVSGASFSSLRQSVAGTYSISSSLTAEPGSAGATYTCQVTHISLEEPLGASTQVVPPERR | 0.00014 | ~60 | ~9 | ~7
hTAPBPR^KRQ (R105K, K211R, R270Q) (other, domain: luminal domain; As m1) KPHPAEGQWRAVDVVLDCFLAKDGAHRGALASSEDRARASLVLKQVPVLDDGSLEDFTDFQGGTLAQDDPPIIFEASVDLVQIPQAEALLHADCSGKEVTCEISKYFLQMTETTVKTAAWFMANMQVSGGGPSISLVMKTPRVTKNEALWHPTLNLPLSPQGTVRTAVEFQVMTQTQSLSFLLGSSASLDCGFSMAPGLDLISVEWRLQHRGRGQLVYSWTAGQGQAVRKGATLEPAQLGMARDASLTLPGLTIQDEGTYICQITTSLYQAQQIIQLNIQASPKVRLSLANEALLPTLICDIAGYYPLDVVVTWTREELGGSPAQVSGASFSSLRQSVAGTYSISSSLTAEPGSAGATYTCQVTHISLEEPLGASTQVVPPERR | 0.00013 | ~60 | ~9 | ~7
